Earlier results in article PMC7114193.
pKd: −log10 of the molar value.

Target: ACE2 (Homo sapiens) (UniProt Q9BYF1)
Sequence (Q9BYF1 18-740): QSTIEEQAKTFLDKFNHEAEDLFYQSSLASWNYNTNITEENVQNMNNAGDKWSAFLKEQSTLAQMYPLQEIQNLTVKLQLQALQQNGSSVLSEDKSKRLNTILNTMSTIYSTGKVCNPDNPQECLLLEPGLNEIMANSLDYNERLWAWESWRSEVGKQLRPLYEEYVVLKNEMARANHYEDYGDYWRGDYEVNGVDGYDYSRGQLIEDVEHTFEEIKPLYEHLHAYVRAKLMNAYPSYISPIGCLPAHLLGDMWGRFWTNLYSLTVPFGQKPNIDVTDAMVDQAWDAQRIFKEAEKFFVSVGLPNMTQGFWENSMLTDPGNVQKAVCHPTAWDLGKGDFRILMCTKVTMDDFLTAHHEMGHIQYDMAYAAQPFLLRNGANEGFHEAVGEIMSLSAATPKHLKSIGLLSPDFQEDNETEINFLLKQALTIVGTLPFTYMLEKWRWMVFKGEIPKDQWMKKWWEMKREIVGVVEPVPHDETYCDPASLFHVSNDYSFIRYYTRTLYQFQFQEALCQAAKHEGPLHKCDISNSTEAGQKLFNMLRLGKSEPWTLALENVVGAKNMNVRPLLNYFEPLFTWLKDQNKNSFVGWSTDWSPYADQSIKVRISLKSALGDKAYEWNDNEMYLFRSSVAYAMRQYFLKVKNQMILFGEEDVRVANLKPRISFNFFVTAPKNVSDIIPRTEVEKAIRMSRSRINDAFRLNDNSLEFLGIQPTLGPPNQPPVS

Q: With RBD-Fc 318-510 (from UniProt P59594) as the substance, how does the pKd read?
A: 8.00
